The target of experiment [1] is prostate specific membrane antigen (PSMA), full-length human (human) (UniProt Q04609). The experiment is described as follows: fraction of radiolabeled mAb bound to excess cells, PSMA-3T3 (bracket: 3T3 control).
For experiment [2] the target is unchanged. The experiment is described as follows: fraction of radiolabeled mAb bound to excess cells, average of runs.
The target is the same in experiment [3]. The experiment is described as follows: fraction of radiolabeled mAb bound to excess cells, PSMA-3T3.
Experiment [4] shares this target. The experiment is described as follows: cell-based or functional assay.

Chain of prostate specific membrane antigen (PSMA), full-length human (human) (Q04609 whole entry): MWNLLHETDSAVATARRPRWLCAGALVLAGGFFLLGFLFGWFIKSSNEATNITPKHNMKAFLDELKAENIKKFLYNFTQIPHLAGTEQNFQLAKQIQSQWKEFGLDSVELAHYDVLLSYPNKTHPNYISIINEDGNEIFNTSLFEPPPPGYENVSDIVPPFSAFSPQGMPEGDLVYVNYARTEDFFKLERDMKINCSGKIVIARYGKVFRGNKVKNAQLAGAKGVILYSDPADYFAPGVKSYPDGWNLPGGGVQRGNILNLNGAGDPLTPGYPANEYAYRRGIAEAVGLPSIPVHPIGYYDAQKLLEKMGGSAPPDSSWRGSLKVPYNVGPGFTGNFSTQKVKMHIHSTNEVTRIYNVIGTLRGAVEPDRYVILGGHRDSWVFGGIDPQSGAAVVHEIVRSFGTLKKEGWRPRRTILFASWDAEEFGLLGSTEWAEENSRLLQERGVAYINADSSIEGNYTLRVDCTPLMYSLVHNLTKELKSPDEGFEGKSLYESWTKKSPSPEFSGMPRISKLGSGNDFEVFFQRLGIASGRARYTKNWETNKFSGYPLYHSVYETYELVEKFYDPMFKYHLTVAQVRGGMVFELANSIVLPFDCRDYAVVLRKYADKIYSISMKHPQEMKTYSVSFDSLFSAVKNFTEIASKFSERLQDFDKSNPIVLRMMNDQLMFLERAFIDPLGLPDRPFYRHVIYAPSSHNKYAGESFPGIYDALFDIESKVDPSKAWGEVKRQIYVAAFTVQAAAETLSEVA

For “^111In mJ591 (In-111 labeled CHX-A''-DTPA mJ591) (antibody)”, the figures for the Immunoreactivity (%) in experiment [1] and in experiment [3] were 54.9% and 58.5%, respectively. The substance also gave an Immunoreactivity (%), average in experiment [2] of 56.7%.

As for mJ591 (antibody), in experiment [4], the immunotoxin cytotoxicity (saporin-linked secondary antibody) on C4-2 cells, LD50 was 88.2 pM and the immunotoxin cytotoxicity (saporin-linked secondary antibody) on PSMA-3T3 cells, LD50 came to 89 pM.

The record behind these values is patent US20140286859A1.
